Experimental data as given in patent US20240400654A1.
Where “and” joins values, the source holds several entries; their conditions need not be identical. Equal entries are not always repeated.

Experiments:
[1] = target: HRgpA-6H (Porphyromonas gingivalis) (UniProt P28784); assay: ELISA; non-related FASEBA supernatant on HRgpA-6H coat; secondary goat anti-human IgG (H+L) HRP
[2] = target: HRgpA-6H (Porphyromonas gingivalis) (UniProt P28784); assay: ELISA; non-related FASEBA supernatant on HRgpA-6H coat; secondary goat anti-human IgG F(ab')2 HRP
[3] = target: HRgpA-6H (Porphyromonas gingivalis) (UniProt P28784); assay: ELISA; non-related FASEBA supernatant on HRgpA-6H coat; secondary mouse anti-human IgG F(ab')2 HRP
[4] = target: HRgpA-6H (Porphyromonas gingivalis) (UniProt P28784); assay: ELISA; non-related FASEBA supernatant on HRgpA-6H coat; secondary Anti-BSA (HRP)
[5] = target: HRgpA-6H (Porphyromonas gingivalis) (UniProt P28784); assay: SPR Biacore 8K, 25 C; table lists HRgpA-6H as ligand, antibody as analyte
[6] = target: HRgpA-6H (Porphyromonas gingivalis) (UniProt P28784); assay: SPR Biacore 8K; table lists HRgpA-6H as ligand, antibody as analyte
[7] = target: whole P. gingivalis cells (strain W83) (Porphyromonas gingivalis)
[8] = target: whole P. gingivalis cells (strain W83) (Porphyromonas gingivalis); assay: gold-labelled KB001, scanning electron microscopy, W83
[9] = target: HRgpA-6H (Porphyromonas gingivalis) (UniProt P28784); assay: SPR Biacore 8K, 25 C; HRGPA-6H immobilized on CM5, KB001-WT-Ab as analyte
[10] = target: HRgpA-6H (Porphyromonas gingivalis) (UniProt P28784); assay: ELISA, FASEBA screening, coated HRgpA-6H; variant OD over parental WT Fab OD
[11] = target: HRgpA-6H (Porphyromonas gingivalis) (UniProt P28784); assay: ELISA, FASEBA screening, coated HRgpA-6H 0.0625 ug/ml
[12] = target: HRgpA-6H (Porphyromonas gingivalis) (UniProt P28784); assay: ELISA, FASEBA screening, coated HRgpA-6H; library clone found WT, OD over parental WT Fab OD

non-related FASEBA supernatant (NC) (Fab)
OD450 ([1]; coating antigen 1 µg/ml): 1.15 | OD450 ([1]; coating antigen 2 µg/ml): 0.736 | OD450 [2]: 0.672 | OD450 ([3]; coating antigen 1 µg/ml): 0.552 | OD450 ([3]; coating antigen 2 µg/ml): 0.288 | OD450 [4]: 1.09

B1: H8 (antibody, V domains shown)
VH: QVQLQESGPGLVKPSETLSLTCTVSGFSLSIYSVHWIRQPPGKGLEWIGMIWGGGSSDYNSALKSRLTISKDTSKNQVSLKLSSVTAADTAVYYCARNGNFYAMDYWGQGTLVTVSS
VL: EIVLTQSPGTLSLSPGERATLSCTASSSVSSSFLHWYQQKPGQAPQLWIYSTSNLASGIPARFSGSGSGTDYTLTISRLEPEDFATYYCHQYHHSPYIYTFGGGTKLEIK
Kd [5]: 1.33 nM | koff [5]: 6.7e-05 s⁻¹ | kon [5]: 50300 M⁻¹ s⁻¹

B2: H7 (antibody, V domains shown)
VH: QVQLQESGPGLVKPSETLSLTCTVSGFSLSIYSVHWIRQPPGKGLEWIGMIWGGGSSDYNSALKSRLTISKDTSKNQVSLKLSSVTAADTAVYYCARNGNFYAMDYWGQGTLVTVSS
VL: EIVLTQSPGTLSLSPGERATLSCTASSSVSSSFLHWYQQKPGQAPQLWIYSTSNLASGIPDRFSGSGSGTDYTLTISRLEPEDFATYYCHQYHHSPYIYTFGGGTKLEIK
Kd [5]: 0.258 nM | koff [5]: 1.07e-05 s⁻¹ | kon [5]: 41400 M⁻¹ s⁻¹

B3: H14 (antibody, V domains shown)
VH: QVQLQESGPGLVKPSETLSLTCTVSGFSLSIYSVHWIRQPPGKGLEWLGMIWGGGSSDYNSALKSRLTISKDTSKNQVSLKLSSVTAADTAMYYCARNGNFYAMDYWGQGTLVTVSS
VL: EIVLTQSPGTLSLSPGERATLSCTASSSVSSSFLHWYQQKPGQAPQLWIYSTSNLASGIPDRFSGSGSGTDYTLTISRLEPEDFAVYYCHQYHHSPYIYTFGGGTKLEIK
Kd [5]: 0.939 nM | koff [5]: 4.89e-05 s⁻¹ | kon [5]: 52100 M⁻¹ s⁻¹

B4: H8 K222A (antibody, V domains shown)
VH: QVQLQESGPGLVKPSETLSLTCTVSGFSLSIYSVHWIRQPPGKGLEWIGMIWGGGSSDYNSALKSRLTISKDTSKNQVSLKLSSVTAADTAVYYCARNGNFYAMDYWGQGTLVTVSS
VL: EIVLTQSPGTLSLSPGERATLSCTASSSVSSSFLHWYQQKPGQAPQLWIYSTSNLASGIPARFSGSGSGTDYTLTISRLEPEDFATYYCHQYHHSPYIYTFGGGTKLEIK
Kd [6]: 0.57 nM | koff [6]: 3.3e-05 s⁻¹ | kon [6]: 58000 M⁻¹ s⁻¹

B5: H5 (antibody, V domains shown)
VH: QVQLQESGPGLVKPSETLSLTCTVSGFSLSIYSVHWIRQPPGKGLEWIGMIWGGGSSDYNSALKSRLTISKDTSKNQVSLKLSSVTAADTAVYYCARNGNFYAMDYWGQGTLVTVSS
VL: EIVLTQSPGTLSLSPGERATLSCTASSSVSSSFLHWYQQKPGQAPRLLIYSTSNLASGIPDRFSGSGSGTDFTLTISRLEPEDFAVYYCHQYHHSPYIYTFGGGTKLEIK
Kd [5]: 0.825 nM | koff [5]: 4.5e-05 s⁻¹ | kon [5]: 54500 M⁻¹ s⁻¹

B6: H7 K222A (antibody, V domains shown)
VH: QVQLQESGPGLVKPSETLSLTCTVSGFSLSIYSVHWIRQPPGKGLEWIGMIWGGGSSDYNSALKSRLTISKDTSKNQVSLKLSSVTAADTAVYYCARNGNFYAMDYWGQGTLVTVSS
VL: EIVLTQSPGTLSLSPGERATLSCTASSSVSSSFLHWYQQKPGQAPQLWIYSTSNLASGIPDRFSGSGSGTDYTLTISRLEPEDFATYYCHQYHHSPYIYTFGGGTKLEIK
Kd [6]: 0.795 nM | koff [6]: 4.36e-05 s⁻¹ | kon [6]: 54800 M⁻¹ s⁻¹

B7: H14 K222A (antibody, V domains shown)
VH: QVQLQESGPGLVKPSETLSLTCTVSGFSLSIYSVHWIRQPPGKGLEWLGMIWGGGSSDYNSALKSRLTISKDTSKNQVSLKLSSVTAADTAMYYCARNGNFYAMDYWGQGTLVTVSS
VL: EIVLTQSPGTLSLSPGERATLSCTASSSVSSSFLHWYQQKPGQAPQLWIYSTSNLASGIPDRFSGSGSGTDYTLTISRLEPEDFAVYYCHQYHHSPYIYTFGGGTKLEIK
Kd [6]: 1.3 nM | koff [6]: 6.53e-05 s⁻¹ | kon [6]: 50100 M⁻¹ s⁻¹

B8: H5 K222A (antibody, V domains shown)
VH: QVQLQESGPGLVKPSETLSLTCTVSGFSLSIYSVHWIRQPPGKGLEWIGMIWGGGSSDYNSALKSRLTISKDTSKNQVSLKLSSVTAADTAVYYCARNGNFYAMDYWGQGTLVTVSS
VL: EIVLTQSPGTLSLSPGERATLSCTASSSVSSSFLHWYQQKPGQAPRLLIYSTSNLASGIPDRFSGSGSGTDFTLTISRLEPEDFAVYYCHQYHHSPYIYTFGGGTKLEIK
Kd [6]: 0.068 nM | koff [6]: 3.42e-06 s⁻¹ | kon [6]: 50200 M⁻¹ s⁻¹

B9: KB001 (antibody, V domains shown)
VH: EVQLKQSGPGLVAPSQSLSITCTVSGFSLSIYSVHWVRQPPGKGLEWLGMIWGGGSSDYNSALKSRLSISKDNSKSQVFLKMNSLQTDDTAMYYCARNGNFYAMDYWGQGTSVTVSS
VL: QIVLTQSPAIMSASLGERVTMTCTASSSVSSSFLHWYQQKPGSSPQLWIYSTSNLASGVPARFSGSGSGTSYSLTISSMEAEDAATYYCHQYHHSPYIYTFGGGTKLEIKR
Kd [7]: 11.4 nM | Response [7]: 0.297 and 0.216 and 0.186 | koff [7]: 0.000219 s⁻¹ | kon [7]: 19200 M⁻¹ s⁻¹ | Kd [5]: 2.02 nM | koff [5]: 8.62e-05 s⁻¹ | kon [5]: 42600 M⁻¹ s⁻¹ | IgG molecules bound per bacterium (molecules per bacterium) [8]: 60 and 80 | Kd [9]: 2.02 nM | koff [9]: 8.62e-05 s⁻¹ | kon [9]: 42600 M⁻¹ s⁻¹

B10: KB001 parental mouse Fab FASEBA variant VH M104V (Fab, V domains shown)
VH: EVQLKQSGPGLVAPSQSLSITCTVSGFSLSIYSVHWVRQPPGKGLEWLGMIWGGGSSDYNSALKSRLSISKDNSKSQVFLKMNSLQTDDTAMYYCARNGNFYAVDYWGQGTSVTVSS
VL: QIVLTQSPAIMSASLGERVTMTCTASSSVSSSFLHWYQQKPGSSPQLWIYSTSNLASGVPARFSGSGSGTSYSLTISSMEAEDAATYYCHQYHHSPYIYTFGGGTKLEIK
Ratio OD(Variant)/OD(WT) [10]: 0.85 | OD450 nm [11]: 0.654

B11: KB001 parental mouse Fab FASEBA variant VH Y106H (Fab, V domains shown)
VH: EVQLKQSGPGLVAPSQSLSITCTVSGFSLSIYSVHWVRQPPGKGLEWLGMIWGGGSSDYNSALKSRLSISKDNSKSQVFLKMNSLQTDDTAMYYCARNGNFYAMDHWGQGTSVTVSS
VL: QIVLTQSPAIMSASLGERVTMTCTASSSVSSSFLHWYQQKPGSSPQLWIYSTSNLASGVPARFSGSGSGTSYSLTISSMEAEDAATYYCHQYHHSPYIYTFGGGTKLEIK
Ratio OD(Variant)/OD(WT) [10]: 0.939 | OD450 nm [11]: 0.722

B12: KB001 parental mouse Fab FASEBA variant VH Y106K (Fab, V domains shown)
VH: EVQLKQSGPGLVAPSQSLSITCTVSGFSLSIYSVHWVRQPPGKGLEWLGMIWGGGSSDYNSALKSRLSISKDNSKSQVFLKMNSLQTDDTAMYYCARNGNFYAMDKWGQGTSVTVSS
VL: QIVLTQSPAIMSASLGERVTMTCTASSSVSSSFLHWYQQKPGSSPQLWIYSTSNLASGVPARFSGSGSGTSYSLTISSMEAEDAATYYCHQYHHSPYIYTFGGGTKLEIK
Ratio OD(Variant)/OD(WT) [10]: 0.997 | OD450 nm [11]: 0.767

B13: KB001 parental mouse Fab FASEBA variant VH Y106D (Fab, V domains shown)
VH: EVQLKQSGPGLVAPSQSLSITCTVSGFSLSIYSVHWVRQPPGKGLEWLGMIWGGGSSDYNSALKSRLSISKDNSKSQVFLKMNSLQTDDTAMYYCARNGNFYAMDDWGQGTSVTVSS
VL: QIVLTQSPAIMSASLGERVTMTCTASSSVSSSFLHWYQQKPGSSPQLWIYSTSNLASGVPARFSGSGSGTSYSLTISSMEAEDAATYYCHQYHHSPYIYTFGGGTKLEIK
Ratio OD(Variant)/OD(WT) [10]: 0.878 | OD450 nm [11]: 0.675

B14: KB001 parental mouse Fab FASEBA variant VH Y106W (Fab, V domains shown)
VH: EVQLKQSGPGLVAPSQSLSITCTVSGFSLSIYSVHWVRQPPGKGLEWLGMIWGGGSSDYNSALKSRLSISKDNSKSQVFLKMNSLQTDDTAMYYCARNGNFYAMDWWGQGTSVTVSS
VL: QIVLTQSPAIMSASLGERVTMTCTASSSVSSSFLHWYQQKPGSSPQLWIYSTSNLASGVPARFSGSGSGTSYSLTISSMEAEDAATYYCHQYHHSPYIYTFGGGTKLEIK
Ratio OD(Variant)/OD(WT) [10]: 0.953 and 0.973 | OD450 nm [11]: 0.733 and 0.748

B15: KB001 parental mouse Fab FASEBA (WT) (Fab, V domains shown)
VH: EVQLKQSGPGLVAPSQSLSITCTVSGFSLSIYSVHWVRQPPGKGLEWLGMIWGGGSSDYNSALKSRLSISKDNSKSQVFLKMNSLQTDDTAMYYCARNGNFYAMDYWGQGTSVTVSS
VL: QIVLTQSPAIMSASLGERVTMTCTASSSVSSSFLHWYQQKPGSSPQLWIYSTSNLASGVPARFSGSGSGTSYSLTISSMEAEDAATYYCHQYHHSPYIYTFGGGTKLEIK
OD450 nm [11]: 0.831 | Ratio OD(Variant)/OD(WT) [12]: 0.956
